{"source": "patent US10357573B2", "about": "“Block copolymer conjugate of physiologically active substance” (Nippon Kayaku Kabushiki Kaisha, priority 2015, dated 2019)", "key": {"[1]": {"assay": "Test Example A-2 intrarenal distribution test", "assay_type": "in vivo, C.B-17SCID mouse", "settings": "50 mg/kg as converted to 7-ethyl-10-hydroxycamptothecin, iv once, 30 minutes after administration"}, "[2]": {"system": "human pancreatic cancer BxPC3", "assay": "Test Example A-1 intratumor distribution test", "assay_type": "in vivo, nude mouse", "settings": "50 mg/kg as converted to 7-ethyl-10-hydroxycamptothecin, iv once, 30 minutes after administration", "from_the_text": "Thirty minutes after the administration, blood was removed from the mouse under isoflurane anesthesia, frozen embedded slices of the removed tumor were produced, and fluorescence was observed."}, "[3]": {"assay": "Light scattering intensity of 1 mg/mL aqueous solution, relative to toluene", "assay_type": "physicochemical", "description": "Regarding the measurement sample for the scattering intensity measurement, a solution obtained by adding ultrapure water to a physiologically active substance-conjugated block copolymer to obtain a concentration of 1 mg/mL, dissolving the block copolymer by irradiating the mixture with ultrasonic waves for 10 minutes under ice cooling, and then filtering the solution through a 0.2-μm membrane filter, was used.\nToluene (manufactured by Junsei Chemical Co., Ltd., special grade) that was used for the measurement of the light scattering intensity, was used after being filtered three times through a 0.2-μm membrane filter."}, "[4]": {"assay": "Test Example C-1 intrarenal distribution test", "assay_type": "in vivo, nude mouse", "settings": "5 mg/kg as converted to 2-(2-aminoethoxy)-9-(diethylamino)-5H-benzo[a]phenoxazin-5-one, iv once, one hour after administration", "from_the_text": "(§1) A tumor mass of human pancreatic cancer BxPC3 that had been subcultured by subcutaneous transplantation in a BALB/c nude mouse was cut into a block having a size of about 3 mm on each side, and this block was subcutaneously transplanted on the dorsal side of a nude mouse using a trocar. […] One hour after the administration, blood was removed from the mouse under isoflurane anesthesia, frozen embedded slices of the removed tumor and the kidneys were produced, and fluorescence was observed."}, "[5]": {"system": "human pancreatic cancer BxPC3", "assay": "Test Example C-1 intratumor distribution test", "assay_type": "in vivo, nude mouse", "settings": "5 mg/kg as converted to 2-(2-aminoethoxy)-9-(diethylamino)-5H-benzo[a]phenoxazin-5-one, iv once, one hour after administration", "from_the_text": "as §1"}, "[6]": {"system": "human colorectal cancer Col-5-JCK and Co-3-KIST, human breast cancer MC-19-JCK", "settings": "75 or 50 mg/kg as converted to Ganetespib, iv once, compared to Comparative Example B-1", "description": "The tumor volume was determined by measuring the major axis (L: mm) and the minor axis (W: mm) of the tumor, and calculating the volume by the calculation formula: (L×W^2)/2."}}, "data": [{"substance": "7-ethyl-10-hydroxycamptothecin (EHC) and 2-(2-aminoethoxy)-9-(diethylamino)-5H-benzo[a]phenoxazin-5-one Conjugate of polyethylene glycol (12 Kilodaltons)-polyglutamic Acid (25 Polymer) Block Copolymer [Comparative Example A-4, reference compound]", "values": [{"measurement": "tissue distribution in kidney slices (fluorescence)", "setting": "[1]", "value": "fluorescence was not recognized in areas other than the blood vessels of the kidneys"}, {"measurement": "tissue distribution in tumor slices (fluorescence)", "setting": "[2]", "value": "did not penetrate into deep parts of the tumor tissue"}]}, {"substance": "7-ethyl-10-hydroxycamptothecin (EHC) and 2-(2-aminoethoxy)-9-(diethylamino)-5H-benzo[a]phenoxazin-5-one Conjugate of polyethylene glycol (2 Kilodaltons)-polyglutamic Acid (7.6 Polymer) Block Copolymer [Example A-4]", "values": [{"measurement": "tissue distribution in kidney slices (fluorescence)", "setting": "[1]", "value": "fluorescent signals were observed in the blood vessels and the renal tubules of the kidneys"}, {"measurement": "tissue distribution in tumor slices (fluorescence)", "setting": "[2]", "value": "could penetrate into deep parts of a tumor tissue"}]}, {"substance": "2-(2-aminoethoxy)-9-(diethylamino)-5H-benzo[a]phenoxazin-5-one Conjugate of polyethylene glycol (2 Kilodaltons)-α,β-polyaspartic Acid (12.5 Polymer) Block Copolymer [Comparative Example C-3]", "values": [{"measurement": "relative ratio between the light scattering intensity and the light scattering intensity of toluene", "setting": "[3]; 1 mg/mL aqueous solution vs standard toluene solution under the same conditions", "value": "less than twice"}, {"measurement": "self-association in aqueous solution", "setting": "[3]; aqueous solution", "value": "non-associating"}, {"measurement": "tissue distribution in kidney slices (fluorescence)", "setting": "[4]", "value": "fluorescence was observed in the renal tubules"}, {"measurement": "tissue distribution in tumor slices (fluorescence)", "setting": "[5]", "value": "migration and accumulation in the tumor tissue was low"}]}, {"substance": "4-isopropyl-6-(4-(1-methyl-1H-indol-5-yl)-5-methylene-4,5-dihydro-1H-1,2,4-triazol-3-yl)benzene-1,3-diol Conjugate of polyethylene glycol (2 Kilodaltons)-polyglutamic Acid (7.9 Polymer) Block Copolymer [Example B-1]", "values": [{"measurement": "antitumor effect", "setting": "[6]", "value": "superior effect in both subcutaneous tumor models at the same dose"}]}]}
